Measured values reported in paper PMC9073325.

Substrate: Nc1ncnc2c1ncn2[C@@H]1O[C@H](COP(=O)(O)OP(=O)(O)OP(=O)(O)O)[C@@H](O)[C@H]1O
Assay: purified protein
Conditions: pH 7.0; 25.0 °C

B1: SOBIR1-KD (Arabidopsis thaliana) (protein)
chain: SIFSPLIKKAEDLAFLENEEALASLEIIGRGGCGEVFKAELPGSNGKIIAVKKVIQPPKDADELTDEDSKFLNKKMRQIRSEINTVGHIRHRNLLPLLAHVSRPECHYLVYEYMEKGSLQDILTDVQAGNQELMWPARHKIALGIAAGLEYLHMDHNPRIIHRDLKPANVLLDDDMEARISDFGLAKAMPDAVTHITTSHVAGTVGYIAPEFYQTHKFTDKCDIYSFGVILGILVIGKLPSDEFFQHTDEMSLIKWMRNIITSENPSLAIDPKLMDQGFDEQMLLVLKIACYCTLDDPKQRPNSKDVRTMLSQIKH
Km: 19.92 ± 0.69 µM
kcat: 0.660 ± 0.006 s⁻¹
